Reference: PMC11543927, “Subtleties in Clathrin heavy chain binding boxes provide selectivity among adaptor proteins of budding yeast” (Nature Communications, 2024)

Key:
[1] = biological target: T1, Chc-mScarlet Clathrin and Arrestin box mutant (Cla+Arr) (Saccharomyces cerevisiae, UniProt P22137 1-1653, K63E | I87D | Q89A | K98E | Q195A | I197T | K251E); assay: FRET or BRET; acceptor photobleaching FRET in living yeast cells at endocytic patches stalled with Latrunculin A, donor mNeonGreen on Ent1/Ent2, acceptor mScarlet on Chc, 21 °C; trimmed mean FRET efficiency; settings: partners not purified
T1 construct: Clathrin heavy chain, Saccharomyces cerevisiae, the ORF of CHC1 fused in the 3' with mScarlet, Clathrin and Arrestin box mutant; source: S. cerevisiae MK100, mutated plasmid pRS315-5'UTR CHC-mScarlet, endogenous CHC1 knocked out, in living cells; not shown: mScarlet, C-terminal, kept

[2] = biological target: T2, Clathrin heavy chain fused to mScarlet (Chc-mScarlet), wild type (Saccharomyces cerevisiae, UniProt P22137 1-1653); assay: as above; settings: partners not purified
T2 construct: Clathrin heavy chain, Saccharomyces cerevisiae, the ORF of CHC1 fused in the 3' with mScarlet; also called Chc1-mScarlet; ScCHC-mScarlet; not shown: mScarlet, C-terminal, kept

[3] = biological target: T3, Chc-mScarlet Clathrin and W box mutant (Cla+W) (Saccharomyces cerevisiae, UniProt P22137 1-1653, F26A | K63E | I87D | Q89A | K98E | Q155A); assay: as above; settings: partners not purified
T3 construct: Clathrin heavy chain, Saccharomyces cerevisiae, the ORF of CHC1 fused in the 3' with mScarlet, Clathrin and W box mutant; source: S. cerevisiae MK100, mutated plasmid pRS315-5'UTR CHC-mScarlet, endogenous CHC1 knocked out, in living cells; not shown: mScarlet, C-terminal, kept

[4] = biological target: T4, Chc-mScarlet Clathrin box mutant (K63E, I87D, Q89A, K98E) (Saccharomyces cerevisiae, UniProt P22137 1-1653, K63E | I87D | Q89A | K98E); assay: as above; settings: partners not purified
T4 construct: Clathrin heavy chain, Saccharomyces cerevisiae, the ORF of CHC1 fused in the 3' with mScarlet, Clathrin box mutant; also called Cla mutant; source: S. cerevisiae MK100, mutated plasmid pRS315-5'UTR CHC-mScarlet, endogenous CHC1 knocked out, in living cells; not shown: mScarlet, C-terminal, kept

[5] = biological target: T5, Chc-mScarlet Clathrin, Arrestin and W box mutant (Cla+Arr+W) (Saccharomyces cerevisiae, UniProt P22137 1-1653, F26A | K63E | I87D | Q89A | K98E | Q155A | Q195A | I197T | K251E); assay: as above; settings: partners not purified
T5 construct: Clathrin heavy chain, Saccharomyces cerevisiae, the ORF of CHC1 fused in the 3' with mScarlet, Clathrin, Arrestin and W box mutant; also called triple mutant; source: S. cerevisiae MK100, mutated plasmid pRS315-5'UTR CHC-mScarlet, endogenous CHC1 knocked out, in living cells; not shown: mScarlet, C-terminal, kept

[6] = tested on: Abp1-mTurquoise2 at endocytic sites; assay: Lifetime TIRF microscopy, Abp1+ / Abp1- endocytic events of Ent1/Ent2-mNeonGreen; format: cell-based, Saccharomyces cerevisiae; settings: Supp. Figure 12; Ent1-mNeonGreen in yeast strains with Chc WT or box mutants (Cla, Cla + Arr, Cla + W); Type ABP+; average of single points
Experimental: To determine the effect of mutating the CHC-NTD Clathrin, Arrestin and W-boxes in how endocytosis progresses, cells tagged with Ent1/2p-mNeonGreen, Chc-mScarlet and Abp1-mTurquoise2 were used. Yeast cells previously described were grown overnight at 30 °C with shaking in a 24-well plate using LD(=low-fluorescence SD)-Trp^-, Leu^- medium (yeast nitrogen base without amino acids supplemented with the corresponding DropOut media, Foredium, CYN402). Cells were diluted in fresh medium with a starting OD600nm of 0.1 and allowed to grow at 30 °C with shaking for several hours (4-6hs) until they reached log phase (OD600nm 0.6-1.2). Micro slide 8-well glass bottom plates (Catalog 80807, Ibidi, Gräfelfing, Germany) were treated with 50 µL of a 1 mg/ml concanavalin A (prepared in 10 mM sodium phosphate buffer pH 6, 10 mM CaCl2,1 mM MnCl2, 0.01% NaN3, Catalog C2010, Sigma Aldrich) solution, incubated for 5 min and then washed twice with 50 µL of fresh medium. 50 µL of cell suspension was applied, incubated for 5 min and removed. Then each well was washed twice with 50 µL of fresh medium. Finally, 50 µL of fresh medium was added. […]

T3 sequence (P22137 whole entry F26A/K63E/I87D/Q89A/K98E/Q155A, the tested form may be a part): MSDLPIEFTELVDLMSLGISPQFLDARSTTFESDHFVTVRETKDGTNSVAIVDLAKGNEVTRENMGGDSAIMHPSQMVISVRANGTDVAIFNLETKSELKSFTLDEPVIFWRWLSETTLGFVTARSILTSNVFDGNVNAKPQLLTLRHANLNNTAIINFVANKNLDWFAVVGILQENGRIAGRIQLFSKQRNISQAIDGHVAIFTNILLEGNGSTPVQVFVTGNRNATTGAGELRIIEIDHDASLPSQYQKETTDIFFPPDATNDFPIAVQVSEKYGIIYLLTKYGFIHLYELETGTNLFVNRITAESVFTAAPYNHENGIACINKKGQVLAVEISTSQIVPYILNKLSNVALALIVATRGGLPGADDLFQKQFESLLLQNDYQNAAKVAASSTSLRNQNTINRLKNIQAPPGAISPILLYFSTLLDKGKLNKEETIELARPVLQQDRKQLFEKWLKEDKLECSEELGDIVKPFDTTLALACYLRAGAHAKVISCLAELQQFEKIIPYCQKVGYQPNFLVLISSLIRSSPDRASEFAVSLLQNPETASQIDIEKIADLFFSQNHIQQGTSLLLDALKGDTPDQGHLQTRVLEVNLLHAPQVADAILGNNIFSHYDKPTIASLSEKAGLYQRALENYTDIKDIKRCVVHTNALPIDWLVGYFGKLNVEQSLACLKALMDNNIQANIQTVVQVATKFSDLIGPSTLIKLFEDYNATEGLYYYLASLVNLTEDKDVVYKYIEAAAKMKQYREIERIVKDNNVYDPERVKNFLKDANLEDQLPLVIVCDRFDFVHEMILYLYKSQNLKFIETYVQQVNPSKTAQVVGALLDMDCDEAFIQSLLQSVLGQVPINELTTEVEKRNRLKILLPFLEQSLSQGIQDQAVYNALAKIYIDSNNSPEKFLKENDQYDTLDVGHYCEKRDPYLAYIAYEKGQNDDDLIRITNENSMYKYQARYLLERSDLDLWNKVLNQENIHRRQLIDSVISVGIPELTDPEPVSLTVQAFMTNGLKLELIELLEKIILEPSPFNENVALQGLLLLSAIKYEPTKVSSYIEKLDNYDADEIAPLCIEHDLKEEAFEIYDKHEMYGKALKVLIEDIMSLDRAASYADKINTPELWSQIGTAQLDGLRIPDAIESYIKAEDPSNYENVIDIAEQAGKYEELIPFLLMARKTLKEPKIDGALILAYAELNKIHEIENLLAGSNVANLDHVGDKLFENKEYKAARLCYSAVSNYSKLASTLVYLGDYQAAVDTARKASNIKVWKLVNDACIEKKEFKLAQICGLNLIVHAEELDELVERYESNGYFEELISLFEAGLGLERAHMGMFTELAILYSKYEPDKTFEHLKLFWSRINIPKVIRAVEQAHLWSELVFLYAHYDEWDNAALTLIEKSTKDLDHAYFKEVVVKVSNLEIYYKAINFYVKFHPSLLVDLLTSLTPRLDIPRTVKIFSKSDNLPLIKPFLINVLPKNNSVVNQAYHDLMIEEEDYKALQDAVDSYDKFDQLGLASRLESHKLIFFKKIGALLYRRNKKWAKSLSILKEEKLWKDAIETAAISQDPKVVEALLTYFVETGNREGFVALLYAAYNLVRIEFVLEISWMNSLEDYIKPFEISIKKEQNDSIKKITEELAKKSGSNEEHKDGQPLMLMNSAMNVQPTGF
T1 sequence (P22137 whole entry K63E/I87D/Q89A/K98E/Q195A/I197T/K251E, the tested form may be a part): as the sequence (P22137 whole entry F26A/K63E/I87D/Q89A/K98E/Q155A, the tested form may be a part) above, with A26F, A155Q, Q195A, I197T, K251E counted along it
T4 sequence (P22137 whole entry K63E/I87D/Q89A/K98E, the tested form may be a part): as the sequence (P22137 whole entry F26A/K63E/I87D/Q89A/K98E/Q155A, the tested form may be a part) above, with A26F, A155Q counted along it
T2 sequence (P22137 whole entry, the tested form may be a part): as the sequence (P22137 whole entry F26A/K63E/I87D/Q89A/K98E/Q155A, the tested form may be a part) above, with A26F, E63K, D87I, A89Q, E98K, A155Q counted along it
T5 sequence (P22137 whole entry F26A/K63E/I87D/Q89A/K98E/Q155A/Q195A/I197T/K251E, the tested form may be a part): as the sequence (P22137 whole entry F26A/K63E/I87D/Q89A/K98E/Q155A, the tested form may be a part) above, with Q195A, I197T, K251E counted along it

B1: Ent1 endogenously tagged with mNeonGreen (Ent1-mNeonGreen) (natural protein, UniProt Q12518 1-454, looked up)
chain: MSKQFVRSAKNLVKGYSSTQVLVRNATSNDNHQVSKDSLIELAEKSYDSADFFEIMDMLDKRLNDKGKYWRHIAKALTVIDYLIRFGSENCVLWCRENLYIIKTLKEFRHEDDEGIDQGQIVRVKAKELTALLSDDERLNEERNMNIKGRNRKGRRRRGTGRSDENDDDLQRAISASRLTAEEDERRRKQDEDYETALQLSKEEEELKRLQDLQRMQQQQGQQQLQQPMYYDIFGNPITPEEYAQFQLQQQQQQQQQQLQQQPMYYDVFGNPITPEELAQFQQQQQLQEQQYLASMQQQQQAMSNNPFAKSEQSSSSPKRNQLVAASSPQQLQQQKQQEPLIQNRTGNQSMTDKYSKLNELLATGTGIDTFGNVGEARIPAQHTKTGTFINSQGTGYRQVSDDPNHNPFLNSQYTGLPSTSVVPTQTGYGFGNQSQQQSQNNGSNNRGYTLIDL
notes: epsin Ent1, Saccharomyces cerevisiae, endogenous locus tagged with mNeonGreen; also called Ent1p; source: endogenously tagged, S. cerevisiae MK100, in living cells
FRET efficiency [1]: 5.25% | FRET efficiency [2]: ~8% | FRET efficiency [3]: 5.93% | FRET efficiency [4]: ~5% | FRET efficiency [5]: 4.66% | Frequency of ABP+ (Abp1-positive) endocytic events, Average [6]: 33.3
